From article PMC12278339 (2025) come the findings set out here.

This assay concerns the target Gab2a 12mer peptide (Homo sapiens, UniProt Q9UQC2). The experiment in a line: SPR. Background: Surface plasmon resonance follows binding to a sensor surface in real time, without labels.

Gab2a 12mer peptide, sequence (Q9UQC2 whole entry): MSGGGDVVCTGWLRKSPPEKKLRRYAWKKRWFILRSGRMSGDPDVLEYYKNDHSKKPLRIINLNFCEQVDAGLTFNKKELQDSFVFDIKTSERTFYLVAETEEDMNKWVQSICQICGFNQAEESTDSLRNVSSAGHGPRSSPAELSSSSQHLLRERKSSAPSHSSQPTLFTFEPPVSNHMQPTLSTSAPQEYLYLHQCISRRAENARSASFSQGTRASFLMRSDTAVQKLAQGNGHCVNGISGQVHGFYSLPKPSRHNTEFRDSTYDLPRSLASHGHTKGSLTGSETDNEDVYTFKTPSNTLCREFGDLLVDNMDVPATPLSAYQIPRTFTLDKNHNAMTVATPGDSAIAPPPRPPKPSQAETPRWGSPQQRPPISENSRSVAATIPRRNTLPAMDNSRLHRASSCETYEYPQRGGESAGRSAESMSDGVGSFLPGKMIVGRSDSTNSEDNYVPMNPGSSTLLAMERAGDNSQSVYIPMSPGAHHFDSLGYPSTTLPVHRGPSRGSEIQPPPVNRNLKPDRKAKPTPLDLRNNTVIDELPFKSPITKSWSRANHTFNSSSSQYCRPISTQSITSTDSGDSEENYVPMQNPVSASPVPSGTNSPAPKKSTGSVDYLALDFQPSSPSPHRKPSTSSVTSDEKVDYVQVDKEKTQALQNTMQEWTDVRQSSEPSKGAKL

B1: Grb2 SH3C (protein)
chain: QQPTYVQALFDFDPQEDGELGFRRGDFIHVMDNSDPNWWKGACHGQTGMFPRNYVTPVNR
Take B1: the Kd (in general, a measure of binding affinity in units of concentration) was determined as 161 µM.
